In US20260241018A1 (BIOCYTOGEN PHARMACEUTICALS BEIJING, published 2026):

Key:
[1] = target: T1, monkey (Macaca fascicularis) 5T4 expressed on CHO-S cells (CHO-fas5T4 cells) (monkey (Macaca fascicularis), UniProt Q4R8Y9 35-355); assay: flow cytometry, CHO-fas5T4 cells
T1 construct: also called monkey 5T4
T1 sequence: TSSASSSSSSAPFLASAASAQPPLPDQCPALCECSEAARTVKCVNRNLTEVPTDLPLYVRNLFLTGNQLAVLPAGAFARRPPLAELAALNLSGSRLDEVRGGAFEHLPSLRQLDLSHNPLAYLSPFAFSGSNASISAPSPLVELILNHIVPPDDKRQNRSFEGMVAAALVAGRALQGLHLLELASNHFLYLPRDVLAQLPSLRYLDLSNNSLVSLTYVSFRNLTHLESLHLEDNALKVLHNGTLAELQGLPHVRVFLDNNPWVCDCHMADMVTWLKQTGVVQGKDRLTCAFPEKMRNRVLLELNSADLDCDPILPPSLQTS
Protocol: CHO-h5T4 cells, CHO-m5T4 cells, CHO-fas5T4 cells or CHO-d5T4 cells were transferred to a 96-well plate at a density of 2×10⁵ cells/well respectively. The anti-5T4 antibodies were added to the 96-well plate, and incubated at 4° C. for 30 min. Then, the cells were incubated with the secondary antibody anti-hlgG-Fc-Alex Flour 647 (RL1-H) (Jackson ImmunoResearch Laboratories, Inc., Cat #: 109-606-170) at 4° C. in the dark for 15 minutes before flow cytometry analysis.

h5T4-His protein = target: T2, h5T4-His protein (human, UniProt Q13641 32-355, limits assumed); assay: epitope binding assay, h5T4-His captured; binder = analyte 2; competitor (analyte 1): 32G1
T2 construct: also called His-tagged human 5T4 protein; not shown: His tag
T2 sequence (looked up): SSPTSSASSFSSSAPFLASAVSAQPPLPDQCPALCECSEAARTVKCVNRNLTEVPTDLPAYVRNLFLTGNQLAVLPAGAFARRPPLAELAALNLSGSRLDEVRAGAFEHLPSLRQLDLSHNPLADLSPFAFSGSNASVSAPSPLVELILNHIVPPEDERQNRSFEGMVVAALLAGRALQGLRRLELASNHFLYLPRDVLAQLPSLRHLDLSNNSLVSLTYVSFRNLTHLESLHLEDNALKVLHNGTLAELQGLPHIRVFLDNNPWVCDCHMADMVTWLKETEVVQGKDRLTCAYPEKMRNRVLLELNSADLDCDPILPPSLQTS
Protocol: Epitope binding assays were performed using ForteBio Octet system to determine whether two anti-5T4 antibodies target the same or overlapping epitopes. 1×HBS-EP+buffer (10 mM 4-(2-hydroxyethyl)-1-piperazineethanesulfonic acid (HEPES), 150 mM NaCl, 3 mM ethylenediaminetetraacetic acid (EDTA) and 0.05% P20, pH7.4) diluted from HBS-EP+buffer (10×) was used as the running buffer throughout the experiment. About 50 RU of h5T4-His protein was captured at a flow rate of 10 μL/min, and 200 nM of the tested antibody was injected at a flow rate of 30 μL/min to bind the ligand. Another comparison antibody was injected under the same conditions to determine whether the binding of different antibodies interfered with each other. The binding time was 180 s for each antibody.
The binding value of each antibody was obtained using Data Analysis HT 12.0. To quantify the interference of one antibody binding to another, a binding ratio was calculated to compare each pair of antibodies. The binding ratio is defined as the binding value of the second antibody (analyte 2), divided by the binding value of the first antibody (analyte 1). […] In general, antibody pairs that interfere with each other have the same or overlapping epitopes.

B1: 32G1 (antibody, V domains shown)
VH: QVQLVQSGGGLVKPGGSLRLSCVASGFTFSDYYMNWVRQAPGKGLEWISYVGTESIYTYYADTVKGRFTISRDNAKNSLYLQMNSLRAEDTALYYCARARDYNLYGMDVWGQGTTVTVSS
VL: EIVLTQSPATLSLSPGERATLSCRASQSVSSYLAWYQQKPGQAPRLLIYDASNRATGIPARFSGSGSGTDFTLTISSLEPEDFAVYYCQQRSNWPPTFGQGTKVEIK
notes: also called anti-5T4 antibody 32G1
Percentage of Positive Cells [1]: 53.2%
binding ratio (h5T4-His protein): 0.01
